Measurements published in patent publication US20090291088A1, “THERAPEUTIC COMBINATIONS OF ANTI-IGF-1R ANTIBODIES AND OTHER COMPOUNDS” (Biogen Idec MA Inc., priority 2008, published 2009).

Target: T1, recombinant human IGF-1R-10His (Homo sapiens, UniProt P08069)
T1 construct: denoted hIGF-1R(1-902)-His10, was purchased from R&D systems (Cat. No. 305-GR-050); purchased R&D Systems 305-GR-050
Experiment: SPR, antibodies and Fabs on IGF-1R-His captured via PENTA-His antibody
Format: binding
Details: Fab fragment; 25° C.
Method: Method: The binding activity of M13-C06, M14-C03, and […] to soluble IGF-1R was measured using surface plasmon resonance. Biotinylated PENTA-His Antibody (Qiagen, Inc.) was immobilized onto a Streptavidin coated Sensor Chip. Soluble/Dimeric IGF-1R-His ectodomain (R&D systems, Inc.) was captured on the surface via the PENTA-His antibody. Secondary injections of M13-C06, M14-C03, or M14-G11 Fabs (0.5 nM-100nM) were performed. The surfaces were regenerated with three short injections of acetate, pH 4.0.
M13-C06, M14-C03, and M14-G11 Fab antibodies were prepared by digestion with immobilized papain (Pierce Cat. No. 20341 (Pierce Biotechnology, Inc., Rockford, Ill.)). The papain resin was washed with 20 mM sodium phosphate pH 7.0; 10 mM EDTA; 20 mM Cysteine. Antibodies were mixed with the papain resin in 500 mM EDTA, 100 mM Cysteine pH 7.0 and digested for three hours in a 37° C. water bath followed by mixing on an inverting shaker overnight at room temperature. Completion of each digestion was determined by analytical size exclusion chromatography (SEC). The resin was removed from the digested protein with a sintered glass funnel filter and washed with 20 mM acetate pH 5.0. The flowthrough was collected and diluted 10-fold with 20 mM acetate pH 5.0. Fab fragments were purified by S-SEPHAROSE™ cation exchange chromatography using a linear salt gradient. […]

ka: 190000 M⁻¹ s⁻¹
kd: 0.00094 s⁻¹
B1: M14-C03_Fab (antibody, V domains shown)
VH: EVQLLESGGGLVQPGGSLRLSCAASGFTFSKYMMSWVRQAPGKGLEWVSYISPSGGLTWYADSVKGRFTISRDNSKNTLYLQMNSLRAEDTAVYYCARDGARGYGMDVWGQGTTVTVSS
VL: DIQMTQSPATLSLSPGERATLSCRASQSVSSYLAWYQQKPGQAPRLLIYDASNRATGIPARFSGSGSGTDFTLTISSLEPEDFAVYYCQQRSNWPPEVTFGPGTKVDIK
